{
  "source": "patent US20250073277A1",
  "about": "“METHODS FOR OBTAINING CARDIOMYOGENIC PRECURSOR CELLS” (University of Miami, published 2025)",
  "target": "T1, human growth hormone-releasing hormone receptor (GHRHR) (human)",
  "T1 chain": "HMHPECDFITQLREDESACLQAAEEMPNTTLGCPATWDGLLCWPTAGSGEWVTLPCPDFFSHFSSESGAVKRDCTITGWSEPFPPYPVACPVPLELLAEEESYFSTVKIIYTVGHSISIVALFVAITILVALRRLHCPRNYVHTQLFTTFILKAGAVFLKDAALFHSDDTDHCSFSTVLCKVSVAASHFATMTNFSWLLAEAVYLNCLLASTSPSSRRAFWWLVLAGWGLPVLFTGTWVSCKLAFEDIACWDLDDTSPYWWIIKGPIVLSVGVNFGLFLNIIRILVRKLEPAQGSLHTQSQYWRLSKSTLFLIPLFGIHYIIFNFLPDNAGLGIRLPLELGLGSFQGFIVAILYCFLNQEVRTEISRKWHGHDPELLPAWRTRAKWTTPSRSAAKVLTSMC",
  "assay": "cell-based or functional assay",
  "data": [
    {"binder": "YADAIFTNSYRKVLGQLSARKLLQDIMSRQQGESNQERGARARL (ligand)", "note": "[recombinant growth hormone-releasing hormone (GHRH)]", "values": [
      {"measurement": "NKX2.5 expression in differentiating hiPSCs", "value": 2.5, "unit": "fold"}
    ]}
  ]
}
